To fix the notation:
B1: Phototropin-1 (Arabidopsis thaliana (Mouse-ear cress)), O48963 (parent)
chain: MEPTEKPSTKPSSRTLPRDTRGSLEVFNPSTQLTRPDNPVFRPEPPAWQNLSDPRGTSPQPRPQQEPAPSNPVRSDQEIAVTTSWMALKDPSPETISKKTITAEKPQKSAVAAEQRAAEWGLVLKTDTKTGKPQGVGVRNSGGTENDPNGKKTTSQRNSQNSCRSSGEMSDGDVPGGRSGIPRVSEDLKDALSTFQQTFVVSDATKPDYPIMYASAGFFNMTGYTSKEVVGRNCRFLQGSGTDADELAKIRETLAAGNNYCGRILNYKKDGTSFWNLLTIAPIKDESGKVLKFIGMQVEVSKHTEGAKEKALRPNGLPESLIRYDARQKDMATNSVTELVEAVKRPRALSESTNLHPFMTKSESDELPKKPARRMSENVVPSGRRNSGGGRRNSMQRINEIPEKKSRKSSLSFMGIKKKSESLDESIDDGFIEYGEEDDEISDRDERPESVDDKVRQKEMRKGIDLATTLERIEKNFVITDPRLPDNPIIFASDSFLELTEYSREEILGRNCRFLQGPETDLTTVKKIRNAIDNQTEVTVQLINYTKSGKKFWNIFHLQPMRDQKGEVQYFIGVQLDGSKHVEPVRNVIEETAVKEGEDLVKKTAVNIDEAVRELPDANMTPEDLWANHSKVVHCKPHRKDSPPWIAIQKVLESGEPIGLKHFKPVKPLGSGDTGSVHLVELVGTDQLFAMKAMDKAVMLNRNKVHRARAEREILDLLDHPFLPALYASFQTKTHICLITDYYPGGELFMLLDRQPRKVLKEDAVRFYAAQVVVALEYLHCQGIIYRDLKPENVLIQGNGDISLSDFDLSCLTSCKPQLLIPSIDEKKKKKQQKSQQTPIFMAEPMRASNSFVGTEEYIAPEIISGAGHTSAVDWWALGILMYEMLYGYTPFRGKTRQKTFTNVLQKDLKFPASIPASLQVKQLIFRLLQRDPKKRLGCFEGANEVKQHSFFKGINWALIRCTNPPELETPIFSGEAENGEKVVDPELEDLQTNVF
partner: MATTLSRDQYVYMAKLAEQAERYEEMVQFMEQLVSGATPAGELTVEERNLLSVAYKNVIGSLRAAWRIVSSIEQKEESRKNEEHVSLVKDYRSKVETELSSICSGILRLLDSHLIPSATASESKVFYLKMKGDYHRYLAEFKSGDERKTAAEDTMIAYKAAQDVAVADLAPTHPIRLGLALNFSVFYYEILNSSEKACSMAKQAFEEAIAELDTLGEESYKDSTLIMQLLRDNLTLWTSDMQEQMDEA
B2: Phototropin-1 (Arabidopsis thaliana (Mouse-ear cress)), O48963 (parent)
chain: B1 chain
partner: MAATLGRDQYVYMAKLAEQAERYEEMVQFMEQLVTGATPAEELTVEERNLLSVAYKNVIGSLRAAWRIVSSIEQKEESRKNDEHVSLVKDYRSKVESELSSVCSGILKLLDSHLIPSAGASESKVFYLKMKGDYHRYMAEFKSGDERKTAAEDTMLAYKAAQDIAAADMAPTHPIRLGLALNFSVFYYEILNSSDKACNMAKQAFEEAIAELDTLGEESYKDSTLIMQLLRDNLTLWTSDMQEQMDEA

This is an account of results in IntAct's records for PubMed 19524572.

In the first assay the parent is B1. Particulars: with 14338_arath GRF8, P48348.
Consider S376A, for which the “effect of a mutation on the interaction” value is reported as “disrupting interaction”. In the case of S410A, the “effect of a mutation on the interaction” value is “disrupting interaction”. As to S350A, the “effect of a mutation on the interaction” value is reported as “disrupting interaction”.

The variants in the next assay derive from B2. The settings on record: with 14336_arath GRF6, P48349.
On to S350A, for which the “effect of a mutation on the interaction” value is reported as “decreasing interaction”.

A further assay covers variants of B2. Particulars: with 14336_arath GRF6, P48349. This is another data set of the same source.
Take S350A: the “effect of a mutation on the interaction” value is given as “disrupting interaction”. Turning to S376A, the “effect of a mutation on the interaction” value is listed as “disrupting interaction”.

The variants in a further assay derive from B2. Particulars: with 14336_arath GRF6, P48349. The source holds these as a separate data set.
Regarding S376A, the “effect of a mutation on the interaction” value is “decreasing interaction”.

The variants in another assay derive from B2. Particulars: with 14336_arath GRF6, P48349. This is another data set of the same source.
As for S410A, the “effect of a mutation on the interaction” value was “disrupting interaction”.
